Experimental data published in PMC4823042, “Transcription factor LSF (TFCP2) inhibits melanoma growth”.

Biological target: T1, LSF (Late SV40 factor 3) (human, UniProt Q12800 1-502)
T1 sequence: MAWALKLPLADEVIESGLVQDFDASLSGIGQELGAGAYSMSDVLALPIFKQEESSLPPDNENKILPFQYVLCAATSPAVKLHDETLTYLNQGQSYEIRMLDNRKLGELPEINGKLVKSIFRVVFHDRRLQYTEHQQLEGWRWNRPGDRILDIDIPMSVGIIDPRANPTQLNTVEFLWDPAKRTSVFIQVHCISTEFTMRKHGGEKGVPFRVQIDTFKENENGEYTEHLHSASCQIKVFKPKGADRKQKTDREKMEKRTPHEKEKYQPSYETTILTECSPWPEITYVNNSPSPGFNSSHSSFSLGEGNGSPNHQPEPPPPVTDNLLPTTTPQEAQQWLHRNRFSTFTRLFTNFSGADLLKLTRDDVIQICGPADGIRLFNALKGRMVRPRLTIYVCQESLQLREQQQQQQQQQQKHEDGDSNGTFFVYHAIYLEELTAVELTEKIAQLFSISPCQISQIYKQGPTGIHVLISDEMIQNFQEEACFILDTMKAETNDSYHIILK
Test: EMSA; LightShift Chemiluminescent EMSA kit per manufacturer; 7% PAGE in 0.5x TBE; binding buffer, pH and temperature not stated
Conditions: protein: ivt, tags: FLAG, chain copies: 4, label: biotin end label

[1] = 5' overhangs 4 nt on both strands

B1: p21 promoter #3 (dsDNA)
DNA 1: GCTGGCTCGGCGCTGGGCAGCCAGGAGCCT
DNA 2: GCCCAGGCTCCTGGCTGCCCAGCGCCGAGCC
binding result (5' overhangs 3 nt (top) and 4 nt (bottom)): binds

B2: p21 promoter #4 (dsDNA)
DNA 1: GCCTCCTTGAGGCGGGCCCGGGCGGGGCGGT
DNA 2: TACAACCGCCCCGCCCGGGCCCGCCTCAAGG
binding result [1]: binds

B3: p21 promoter #2 (dsDNA)
DNA 1: GCTGGAACTCGGCCAGGCTCAGCTGGCTCGG
DNA 2: AGCGCCGAGCCAGCTGAGCCTGGCCGAGTTC
binding result [1]: binds

B4: p21 promoter #4 mutant (dsDNA)
DNA 1: GCCTCCTTGAGTAGGTCCCGGTAGGTGCGGT
DNA 2: TACAACCGCACCTACCGGGACCTACTCAAGG
binding result [1]: no binding

B5: p21 promoter #1 mutant (dsDNA)
DNA 1: GCACGCGAGGTTACGTGACCGTATGTCCTGC
DNA 2: TCCAGCAGGACATACGGTCACGTAACCTCGC
binding result [1]: no binding

B6: p21 promoter #1 (dsDNA)
DNA 1: GCACGCGAGGTTCCGGGACCGGCTGGCCTGC
DNA 2: TCCAGCAGGCCAGCCGGTCCCGGAACCTCGC
binding result [1]: binds
